The values that follow come from the nanobody polyreactivity screen of Harvey et al. (2022).

The nature of the data set: yeast display, Sf9 membrane polyspecificity reagent, FACS + sequencing; frameworks hold sequencing errors. A digest of the protocol:
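In a synthetic yeast display library (Saccharomyces cerevisiae BJ5465), nanobody expression was induced with galactose for 36–48 hours. FACS gates were set low and high (top ~1%) using anti-HA fluorescence for expression and streptavidin fluorescence for binding of the Sf9 membrane reagent. Each polyreactivity label is drawn from the gate of origin.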
Turning to “QVQLVESGGGLVQAGGSLRLSCAASGSIFPENAMGWYRQAPGKERELVAAITSSDSSTYYADSVKGRFTISRDNAKNTVYLHMNSLKPEDTAVYSCAAYRVGFRFREYYWGQGTQVTVSS”, the “polyreactivity (PSR sort gate)” value is recorded as “low polyreactivity”.
As for “QVQLVESGGGLVQAGGSLRLSCAASGSIFPENAMGWYRQAPGKERELVAAITSSDSSTYYADSVKGRFTISRDNAKNTVYLQMNSLKPEDTAVYYCAAYRVGFRFREYYWGQGTQVTVSS”, the “polyreactivity (PSR sort gate)” value is listed as “low polyreactivity”.
With “QVQLVESGGGLVQAGGSLRLSCAASGSIFPFNAMGCYRQAPGKERELVAAISYSGGSTYYADSVKGRFTISRDNAKNTVYLQMTRLKPEDTAVYYCNRLLRRHLYIFYYWGQGTLVTVSS”, the “polyreactivity (PSR sort gate)” value is “high polyreactivity”.
As for “QVQLVESGGGLVQAGGSLRLSCAASGSIFPFNAMGWYRQAPGKERELVAAISRRGTGTYYADSVKGRFTISRDNAKNTVYLQMNSLKPEDTAVYYCNAVVRAGHYDYWGQGTQVTLSS”, the “polyreactivity (PSR sort gate)” value is listed as “high polyreactivity”.
As for “QVQLVESGGGLVQAGGSLRLSCAASGSIFPFYAMGWFRQAPGKERELVAAISWSGGSTYYADSVKGRFTISRDNAKNTVYLQMNSLKPEDTAVYYCNRADGYSFSLNRSDYWGQGTQVTVSS”, the entry is “low polyreactivity”.
With “QVQLVESGGGLVQAGGSLRLSCAASGSIFPFYAMGWYRQAPGKERELVATISWSGGRTYYADSVKGRFTISRDNAKYTVDLQMNTLKPEDTAVYYCAAGSYHYPNAYYYWGQGTQVTVSS” the entry was “high polyreactivity”.
With “QVQLVESGGGLVQAGGSLRLSCAASGSIFPGYAMAWYRQAPGKERELVAAISRSGGITYYADSVKGRFTISRDNAKNTVYLQMNSLKPEDTSVYYCAKTLPSNGHYDYWGQGTQVTVSS” the entry was “low polyreactivity”; with “QVQLVESGGGLVQAGGSLRLSCAASGSIFPGYAMGWYRQAPGKERELVAAIDRSGGSTYYADSVKGRFTISRDNAKNTVYLQMNSLKPEDTAVYYCNRVFTWRYGYRYEYWGQGTQVTVSS”, “high polyreactivity”.
As to “QVQLVESGGGLVQAGGSLRLSCAASGSIFPGYAMGWYRQAPGKERELVATITWSGGSTYYADSVKGRFTISRDNAKNTVYLQMISLKTEDTAVYYCNADSNCYYQWNYYGLYDYWGQGTQVTVSS”, the “polyreactivity (PSR sort gate)” value is recorded as “low polyreactivity”.
As for “QVQLVESGGGLVQAGGSLRLSCAASGSIFPGYAMGWYRQAPGKERELVATITWSGGSTYYADSVKGRFTISRDNAKNTVYLQMNSLIPEDTAVYYCNADSNWYYQWNYYGLYDYWGQGTQVTVSS”, the entry is “low polyreactivity”; as for “QVQLVESGGGLVQAGGSLRLSCAASGSIFPGYAMGWYRQAPGKERELVATITYSDGSTYYADSVKGRFTISRDNAKNTVYLQMNSLKPEDTAVYYCAVTYWWYYGYDYWGQGTQVTVSS”, “low polyreactivity”; as for “QVQLVESGGGLVQAGGSLRLSCAASGSIFPGYSMGWCRQAPGKERELVAAISISGGDTYYADSVKGRFTISRDNAKNTGYFQMNSLKPEDTSVYHCNKEDDDREWFEYYWWYDYWGQGTQVTVTS”, “high polyreactivity”.
As for “QVQLVESGGGLVQAGGSLRLSCAASGSIFPGYVMGWYRQAPGTERELVAAISWSGGSTYYADSVKGRFTISRDNAMNTVYLQLNSLKPEDTAVYYWAADYSYYHGPSRHKHDYWGQGTQVTVSS”, the entry is “low polyreactivity”; as for “QVQLVESGGGLVQAGGSLRLSCAASGSIFPIYAMGWYRQAPGKERELVAAINRSGGSTYYADSVKGRFTISRDNAKNTVYLQMNSLKPEDTAVYYCNADYGYHNQLFWGYYGWSSDHWGQGTQVTVSS”, “low polyreactivity”; as for “QVQLVESGGGLVQAGGSLRLSCAASGSIFPIYAMGWYRQAPGKERELVAAITRSDGSTYYADSVKGRFTISRDNAKNTVYLQMNSLNPEDTAVYYCGDYGYWGQGTQVTVSS”, “low polyreactivity”.
With “QVQLVESGGGLVQAGGSLRLSCAASGSIFPIYAWGWYRQAPGKERELVAAISGSGARTYYSDSVKGRFTISRDNAKNTVYLQMNSLKPEDTAVYYCNAKYGYDSEARIVKPVRYDYWGQGTQVTVSS” the entry was “high polyreactivity”; with “QVQLVESGGGLVQAGGSLRLSCAASGSIFPIYTMGWYRQAPGKERELVAAITYNAGSTYYADSVKGRFTISRDNAKNTVYLQMNSLKPEDTAVYYCAADRYYDRTFPGYDYWGQGTQVTVSS”, “low polyreactivity”.
Take “QVQLVESGGGLVQAGGSLRLSCAASGSIFPKYAMGWYRQAPGKERELVAAISRGGGSTYYADSVKGRFTISRDNAKNTVYLQMNSLKPEDTAVYYCAALFTPALSEYDYWGQGTQVTVSS”: the “polyreactivity (PSR sort gate)” value is “high polyreactivity”.
As for “QVQLVESGGGLVQAGGSLRLSCAASGSIFPLNAMGWYRQSPGKERELVATISWRGGITYYADSVKGRFTISRDNAKNTVYLQMNSLKPEDTAVYYCATVGRWNSLWYRYRYDYWGQGTQVTVSS”, the entry is “low polyreactivity”; as for “QVQLVESGGGLVQAGGSLRLSCAASGSIFPLYDMGWSRQATGKQSELVASITSGDTTNYADSVKGRFTISRDNAKNTVYLQMISLNAEDTAVYYCATDTPTDRYAAYPNDQYYYWGQGTQVTVSS”, “low polyreactivity”; as for “QVQLVESGGGLVQAGGSLRLSCAASGSIFPPNAMGWYRQAPGKERELVAGISQSGGSTYYADSVKGRFTISRDNAKNTVYLQMNSLKPEDTAVYYCARRSRVGYPLDSWGQGTQVTVSS”, “high polyreactivity”.
For “QVQLVESGGGLVQAGGSLRLSCAASGSIFPPYAMGWYRQAPGKERELVASISNSGGSTYYADSVKGRFTISRDNAKNTVYLQMNSLKPEDTAVYYCAAYAVVSPSFTYGYWGQGTQVTVSS”, the “polyreactivity (PSR sort gate)” value is reported as “high polyreactivity”.
For the sequence “QVQLVESGGGLVQAGGSLRLSCAASGSIFPQYAMGWYRQAPGKERELVAGISGSGGGTYYADSVKGRFTISRDNAKNTVYLQMNSLKPEDTAVYDCYDYWGQGTQVTVSS”, the “polyreactivity (PSR sort gate)” value is given as “low polyreactivity”.
With “QVQLVESGGGLVQAGGSLRLSCAASGSIFPRNAMGWYRQAPGKERELVAGISSGGSTNYADSVKGRFTISRDNAKNTVYLQMNSLNPEDTAVYYCAARQWIRNLGFGYSIYNYWGQGTQVTVSS” the entry was “high polyreactivity”; with “QVQLVESGGGLVQAGGSLRLSCAASGSIFPRYAMGWYRQAPGKERELVAAISWSGGSTYYADSVKGRFTISRDNAKNTFYLQMNSLKPEDTAVYYCAALSKHVQVAYDPWGQGTQVTVSS”, “high polyreactivity”; with “QVQLVESGGGLVQAGGSLRLSCAASGSIFPRYAMGWYRQAPGKERELVAAITGSGSSTYYADSVKGRFTISRDNAKNTVYLQMNSLKPEDTAVYYCAALYGPGREYDYWGQGTQVTVSS”, “low polyreactivity”.
Take “QVQLVESGGGLVQAGGSLRLSCAASGSIFPSNVMGWYRQAPGKERELVAAISTTGSTYYADSVKGRFTISRDNAKNTVYLQMNSLKTEDTAVYDCAAEYWSYAHGGQLYGYDYWGQGTQVTVSS”: the “polyreactivity (PSR sort gate)” value is “low polyreactivity”.
With “QVQLVESGGGLVQAGGSLRLSCAASGSIFPVYAMGWYRPAPGKERELVAAISWIGGGTYYADSVKGRFTISRDNAKNTVYLQKHSLKPEDTAVYDCAAVPYTSEYDYWGQGTEVTVSS” the entry was “high polyreactivity”.
With “QVQLVESGGGLVQAGGSLRLSCAASGSIFPVYAMGWYRQAPGKEREFVARIRFSGGRTYYADSVKGRFTISRDNAKNTVYLQMNSLKPEDTAVYYCAKAQYRGRYGYWGQGTQVTVSS” the entry was “high polyreactivity”; with “QVQLVESGGGLVQAGGSLRLSCAASGSIFPVYAMGWYRQAPGKERELVATIRSGGARTYYADSVKGRFTISRDNAKNTVYLQMNSLKPEDTAVYYCAVDQSRWQARYYYWGQGTQVTVSS”, “high polyreactivity”.
With “QVQLVESGGGLVQAGGSLRLSCAASGSIFPVYTMGWYRQAPGKEREFVATITISGAITYYADSVKGRFTISRDNAKNSVYLQMNSLKPEDTAVYYCNTGPISYPANDYWGQGTQVTVSS”, the “polyreactivity (PSR sort gate)” value is on record as “low polyreactivity”.
As for “QVQLVESGGGLVQAGGSLRLSCAASGSIFPVYTMGWYRQAPWKERELVAAITKTGGSTYYADSVKGRFTISRDNAKNTVYLQMNILIPEDTAVYYCAKPATYYELDYWGQGTQVNVSS”, the entry is “low polyreactivity”; as for “QVQLVESGGGLVQAGGSLRLSCAASGSIFPWNAMGWYRQAPGKERELVAAISRGGSTNYADSVKGRFTISRDNAKNTVYLQMNSLKPEDTAVYYCAVYYYSYHWGRGYDYWGQGTQVTVSS”, “high polyreactivity”; as for “QVQLVESGGGLVQAGGSLRLSCAASGSIFPYNAMGWYRQAPGKERELVATISSGGSTNYADSVKGRFTISRDNAKNTVYLQMKSLKPADTAVYYCAADVIVFFSAPNYWGDIEYGYWGQGTQVTVSS”, “low polyreactivity”.
As for “QVQLVESGGGLVQAGGSLRLSCAASGSIFPYNAMGWYRQAPGKERELVATISSGGSTNYADSVKGRFTISRDNAKNTVYLQMNSLKPEDTAVYYCAADVIVFYYAPNYWVDIEYGYWGQGTQVTVSS”, the entry is “low polyreactivity”; as for “QVQLVESGGGLVQAGGSLRLSCAASGSIFPYNAMGWYRQERGNERELVAAISISGGSTYYADSVKGRFTISRDNAKNTVYFQMNSLKPEDTAVYYCAARQTLSSAFDYWGQGTQVTVSS”, “low polyreactivity”; as for “QVQLVESGGGLVQAGGSLRLSCAASGSIFPYVNAMGWYRQAPGKERELVASIPGGGGTKYADSVKGRFTISRDNAKNTVYLQMNSLKPEDTAVYYCNATSGNPASTARMNYWGQGTQVTVSS”, “low polyreactivity”.
In the case of “QVQLVESGGGLVQAGGSLRLSCAASGSIFPYYAMGWYRQAPGKERELVAAISDSGDSTYYADSVKGRFTISRDNAKNTVYLQMNSLKPEDTAVYYCAADQTSSYYDPWGDYWGQGTQVTVSS”, the “polyreactivity (PSR sort gate)” value is recorded as “low polyreactivity”.
As for “QVQLVESGGGLVQAGGSLRLSCAASGSIFPYYAMGWYRQAPGKERELVAAISGSGGSTYYADSVKGRFTISRDNAKNTVYLQLNSLKPVDTAVYYCATADVYVYWYTSTDDYWGQGTQVTVSS”, the entry is “low polyreactivity”; as for “QVQLVESGGGLVQAGGSLRLSCAASGSIFPYYAMGWYRQAPGKERELVAAISWSGTSTYYADSLKGRFTISRDNAKNTVYLQMNSLKPEDTAVYYCAASAVGTNHYGYWNESDYWGQGTQVTVSS”, “low polyreactivity”.
